Laboratory results from PMC9015746.

What was measured:
[1] = target: Bluetongue virus membrane penetration protein VP5 (in the purified BTV-1 virion) (bluetongue virus BTV-1); experiment: cryo-EM structure
[2] = target: purified wild-type VP5 protein (bluetongue virus BTV-1); experiment: SEC
[3] = target: Bluetongue virus core protein VP7 (in the purified BTV-1 virion) (bluetongue virus BTV-1); experiment: cryo-EM structure

Bluetongue virus membrane penetration protein VP5 (in the purified BTV-1 virion) (natural protein)
stoichiometry N [1]: 3

purified wild-type VP5 protein (natural protein)
stoichiometry N [2]: 3

Bluetongue virus core protein VP7 (in the purified BTV-1 virion) (natural protein)
stoichiometry N [3]: 3
